The source of these data is patent US20210230279A1 (University of California, published 2021).

Test [1] addresses T1, recombinant human integrin αvβ8 (human, UniProt P06756 31-992; P26012 43-684). Kind of test: cell-based or functional assay.
Test [2] addresses T2, recombinant human integrin αvβ6 (human, UniProt P18564 22-707). The test is described as follows: cell-based or functional assay.
For test [3], the target named is T3, recombinant human integrin αvβ1 (human, UniProt P05556 21-728).
T3 construct: Bought; also called αvβ1 (R&D systems)
The test is described as follows: ELISA on coated recombinant human integrin; 0 = no apparent binding. On the technique in general: An ELISA detects its analyte on a solid surface through an enzyme-linked reagent.
Description: (§1) Binding was quantified by intensity as 0-4 (0 representing no apparent binding; 4 representing robust binding) and results normalized to expression.

Test [4] deals with T4, recombinant human integrin αvβ3 (human, UniProt P05106 27-718).
T4 construct: Bought; also called αvβ3 (R&D systems)
Described as above.
Description: as §1

The target in test [5] is T5, recombinant human integrin αvβ5 (human, UniProt P18084 24-719).
T5 construct: Bought; also called αvβ5 (R&D systems)
The description is as above.
Description: as §1

Test [6] addresses T1, recombinant human integrin αvβ8. The test is described as follows: ELISA, Mab coated at 5 ug/ml, receptor 0.5 µg/ml in Mg buffer (1 mM Ca++ and 1 mM Mg++), detected with biotinylated anti-αv 8B8.
Protocol: (§2) Binding in EDTA containing buffer defines cation-dependence because EDTA binds to Ca⁺⁺ and Mg′. Magnesium cation buffers contains 1 mM Ca⁺⁺ and 1 mM Mg⁺⁺. Here, the results are relative to anti-av, clone 11D12V2. All antibodies were coated on ELISA plates at 5 μg/ml.
For test [7], the target named is T2, recombinant human integrin αvβ6. Described as above.
Protocol: as §2
Test [8] has as its target T1, recombinant human integrin αvβ8. The test is described as follows: ELISA: integrin coated on plate, supernatant of transfected 293 cells at 1/10 dilution, anti-mouse IgG-HRP; score normalized to expression.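 Also: scale runs from 0 (no apparent binding) to 4 (robust binding), with scores adjusted for clone protein expression as determined by a murine IgG ELISA.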
Description: as §1
The target is the same in test [9]. Kind of test: blocking of adhesion (A590) of Cho cells expressing GARP/LTGFB1 to immobilized αvβ8; antibody concentration varied; unit taken from the axis log[Agonist], (ug/ml).
Description: (§3) Here, Cho3.2.8.1 cells were transfected with GARP and LTGFB1.
In test [10] the target is T2, recombinant human integrin αvβ6. Kind of test: blocking of adhesion (A590) of Cho cells expressing GARP/LTGFB1 to immobilized αvβ6; antibody concentration varied; unit taken from the axis log[Agonist], (ug/ml).
Description: as §3
Test [11] has the same target. Kind of test: competition of RGD3 with 3G9 for binding to αvβ6 (sheet title: modest cross-competition); y axis 'Relative Inhibition of avb6 binding to TGFb3 peptide'; signal falls from about 1.0 only to about 0.55 at log 4.
Test [12] addresses T3, recombinant human integrin αvβ1. The test is described as follows: ELISA, integrin coated, rabbit IgG detected with anti-rabbit HRP; relative to anti-αv (8B8) control wells.
Protocol: (§4) All integrins were coated on ELISA plates at 2 mg/ml, blocked with BSA, and antibodies were allowed to bind.
Test [13] deals with T4, recombinant human integrin αvβ3. The description is as above.
Protocol: as §4
Test [14] deals with T5, recombinant human integrin αvβ5. The test is described as above.
Protocol: as §4
Test [15] deals with T2, recombinant human integrin αvβ6. The description is as above.
Protocol: as §4
Test [16] has as its target T1, recombinant human integrin αvβ8. Kind of test: ELISA on coated recombinant human integrin; 0 = no apparent binding.
Description: as §1
Test [17] concerns the target T2, recombinant human integrin αvβ6. Kind of test: ELISA: integrin coated on plate, supernatant of transfected 293 cells at 1/10 dilution, anti-mouse IgG-HRP; score normalized to expression.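 Also: scale runs from 0 (no apparent binding) to 4 (robust binding), with scores adjusted for clone protein expression as determined by a murine IgG ELISA.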
Description: as §1
The target is the same in test [18]. The test is described as follows: ELISA on coated recombinant human integrin; 0 = no apparent binding.
Description: as §1
Test [19] has as its target T1, recombinant human integrin αvβ8. Kind of test: scFv yeast display selection.
For test [20], the target named is T4, recombinant human integrin αvβ3. Kind of test: ELISA: integrin coated on plate, supernatant of transfected 293 cells at 1/10 dilution, anti-mouse IgG-HRP; score normalized to expression.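 Also: scale runs from 0 (no apparent binding) to 4 (robust binding), with scores adjusted for clone protein expression as determined by a murine IgG ELISA.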
Description: as §1
In test [21] the target is recombinant αvβ8 ectodomain (Homo sapiens (Human), UniProt P06756 31-992; P26012 43-684). The test is described as follows: ELISA, Mab coated at the given concentration, αvβ8 ectodomain 0.5 µg/ml, detected with biotinylated anti-αv 8B8 and SA-HRP; specific binding minus SV5 control.
Description: As a negative control, some wells were coated with anti-SV5 at the same concentrations. Non-specific binding sites were blocked with BSA.

Where a chain is given by its changes, count along the chain named.

T4 sequence (chain, as listed by the source limits assumed, chain 1 of 2): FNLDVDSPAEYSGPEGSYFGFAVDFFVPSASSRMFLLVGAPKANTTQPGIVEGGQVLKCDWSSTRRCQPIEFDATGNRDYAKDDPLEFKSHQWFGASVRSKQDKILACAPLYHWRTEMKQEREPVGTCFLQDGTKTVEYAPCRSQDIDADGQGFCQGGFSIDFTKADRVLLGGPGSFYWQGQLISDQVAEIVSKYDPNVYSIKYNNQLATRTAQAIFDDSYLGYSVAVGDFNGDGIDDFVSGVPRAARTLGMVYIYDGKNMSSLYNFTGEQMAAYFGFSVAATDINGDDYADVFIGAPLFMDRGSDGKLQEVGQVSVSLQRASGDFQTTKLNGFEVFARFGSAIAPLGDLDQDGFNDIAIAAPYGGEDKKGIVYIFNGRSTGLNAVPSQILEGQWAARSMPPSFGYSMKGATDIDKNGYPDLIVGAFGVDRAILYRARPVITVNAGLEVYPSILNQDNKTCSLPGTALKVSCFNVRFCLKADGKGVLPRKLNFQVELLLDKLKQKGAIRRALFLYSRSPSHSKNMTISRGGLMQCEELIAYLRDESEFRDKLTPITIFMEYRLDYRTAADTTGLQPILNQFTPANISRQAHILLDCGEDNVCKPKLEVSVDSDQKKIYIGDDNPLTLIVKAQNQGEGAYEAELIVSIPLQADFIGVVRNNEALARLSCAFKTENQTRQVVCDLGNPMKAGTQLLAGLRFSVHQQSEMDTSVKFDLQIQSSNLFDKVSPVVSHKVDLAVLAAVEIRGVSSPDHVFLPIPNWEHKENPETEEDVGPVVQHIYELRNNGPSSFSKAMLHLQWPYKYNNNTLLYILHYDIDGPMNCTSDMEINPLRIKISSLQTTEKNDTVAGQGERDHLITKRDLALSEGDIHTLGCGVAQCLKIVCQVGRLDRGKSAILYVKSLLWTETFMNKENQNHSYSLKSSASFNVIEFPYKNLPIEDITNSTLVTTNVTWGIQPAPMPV
T4 sequence (P05106 27-718 limits assumed, chain 2 of 2): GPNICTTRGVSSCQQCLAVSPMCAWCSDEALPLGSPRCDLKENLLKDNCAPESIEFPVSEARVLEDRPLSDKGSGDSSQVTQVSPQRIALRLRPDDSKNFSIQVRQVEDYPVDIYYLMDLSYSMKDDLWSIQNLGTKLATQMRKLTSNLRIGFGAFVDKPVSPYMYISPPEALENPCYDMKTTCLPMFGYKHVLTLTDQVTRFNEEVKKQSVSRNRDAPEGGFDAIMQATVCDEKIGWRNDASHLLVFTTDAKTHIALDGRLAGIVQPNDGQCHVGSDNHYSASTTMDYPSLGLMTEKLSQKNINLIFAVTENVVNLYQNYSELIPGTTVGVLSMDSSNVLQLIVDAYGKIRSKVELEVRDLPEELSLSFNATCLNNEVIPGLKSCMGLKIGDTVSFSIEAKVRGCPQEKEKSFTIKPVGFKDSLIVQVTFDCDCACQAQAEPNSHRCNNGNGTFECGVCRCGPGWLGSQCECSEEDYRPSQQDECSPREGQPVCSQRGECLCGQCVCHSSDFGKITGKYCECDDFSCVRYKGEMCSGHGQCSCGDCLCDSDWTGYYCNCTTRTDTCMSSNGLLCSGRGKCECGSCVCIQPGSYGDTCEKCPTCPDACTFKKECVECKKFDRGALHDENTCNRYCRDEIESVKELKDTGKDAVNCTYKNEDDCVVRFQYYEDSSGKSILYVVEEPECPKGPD
T3 sequence (chain, as listed by the source limits assumed, chain 1 of 2): as the sequence (chain, as listed by the source limits assumed, chain 1 of 2) above
T3 sequence (P05556 21-728 limits assumed, chain 2 of 2): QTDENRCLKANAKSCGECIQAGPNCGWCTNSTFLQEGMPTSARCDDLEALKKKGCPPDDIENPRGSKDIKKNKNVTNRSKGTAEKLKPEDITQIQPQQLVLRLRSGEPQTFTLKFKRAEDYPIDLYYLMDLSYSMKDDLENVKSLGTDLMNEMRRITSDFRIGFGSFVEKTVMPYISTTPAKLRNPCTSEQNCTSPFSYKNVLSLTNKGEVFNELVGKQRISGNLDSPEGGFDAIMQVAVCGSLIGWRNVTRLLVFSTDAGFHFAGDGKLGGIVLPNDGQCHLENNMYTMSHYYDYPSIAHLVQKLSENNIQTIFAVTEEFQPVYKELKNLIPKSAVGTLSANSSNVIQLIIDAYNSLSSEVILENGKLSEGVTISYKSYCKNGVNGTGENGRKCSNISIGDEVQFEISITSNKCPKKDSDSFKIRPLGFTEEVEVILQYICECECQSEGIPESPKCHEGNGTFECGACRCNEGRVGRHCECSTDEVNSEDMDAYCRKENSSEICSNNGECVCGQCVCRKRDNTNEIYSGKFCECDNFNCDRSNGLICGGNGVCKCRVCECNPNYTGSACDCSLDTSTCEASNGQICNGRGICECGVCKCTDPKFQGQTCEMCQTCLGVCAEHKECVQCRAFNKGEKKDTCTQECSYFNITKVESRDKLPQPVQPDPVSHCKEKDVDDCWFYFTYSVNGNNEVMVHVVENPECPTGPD
T2 sequence (chain, as listed by the source limits assumed, chain 1 of 2): as the sequence (chain, as listed by the source limits assumed, chain 1 of 2) above
T2 sequence (P18564 22-707 limits assumed, chain 2 of 2): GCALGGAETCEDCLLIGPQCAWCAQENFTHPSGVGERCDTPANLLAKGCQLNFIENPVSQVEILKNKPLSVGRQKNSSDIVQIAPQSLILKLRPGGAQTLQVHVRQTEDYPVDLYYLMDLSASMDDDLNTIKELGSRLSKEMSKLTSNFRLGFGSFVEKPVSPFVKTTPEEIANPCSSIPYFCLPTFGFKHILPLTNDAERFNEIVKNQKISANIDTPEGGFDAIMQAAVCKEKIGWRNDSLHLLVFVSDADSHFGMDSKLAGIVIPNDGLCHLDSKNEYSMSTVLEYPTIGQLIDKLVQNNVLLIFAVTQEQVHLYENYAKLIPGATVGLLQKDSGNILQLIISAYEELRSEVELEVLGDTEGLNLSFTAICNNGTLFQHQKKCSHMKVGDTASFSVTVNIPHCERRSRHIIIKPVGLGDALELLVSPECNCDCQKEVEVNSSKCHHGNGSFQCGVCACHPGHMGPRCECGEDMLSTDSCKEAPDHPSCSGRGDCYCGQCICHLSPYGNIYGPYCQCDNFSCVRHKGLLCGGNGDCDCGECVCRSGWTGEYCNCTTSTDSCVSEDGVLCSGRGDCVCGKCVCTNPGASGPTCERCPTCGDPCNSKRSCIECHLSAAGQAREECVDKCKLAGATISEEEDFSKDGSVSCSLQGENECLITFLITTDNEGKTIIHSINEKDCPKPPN
T5 sequence (chain, as listed by the source limits assumed, chain 1 of 2): as the sequence (chain, as listed by the source limits assumed, chain 1 of 2) above
T5 sequence (P18084 24-719 limits assumed, chain 2 of 2): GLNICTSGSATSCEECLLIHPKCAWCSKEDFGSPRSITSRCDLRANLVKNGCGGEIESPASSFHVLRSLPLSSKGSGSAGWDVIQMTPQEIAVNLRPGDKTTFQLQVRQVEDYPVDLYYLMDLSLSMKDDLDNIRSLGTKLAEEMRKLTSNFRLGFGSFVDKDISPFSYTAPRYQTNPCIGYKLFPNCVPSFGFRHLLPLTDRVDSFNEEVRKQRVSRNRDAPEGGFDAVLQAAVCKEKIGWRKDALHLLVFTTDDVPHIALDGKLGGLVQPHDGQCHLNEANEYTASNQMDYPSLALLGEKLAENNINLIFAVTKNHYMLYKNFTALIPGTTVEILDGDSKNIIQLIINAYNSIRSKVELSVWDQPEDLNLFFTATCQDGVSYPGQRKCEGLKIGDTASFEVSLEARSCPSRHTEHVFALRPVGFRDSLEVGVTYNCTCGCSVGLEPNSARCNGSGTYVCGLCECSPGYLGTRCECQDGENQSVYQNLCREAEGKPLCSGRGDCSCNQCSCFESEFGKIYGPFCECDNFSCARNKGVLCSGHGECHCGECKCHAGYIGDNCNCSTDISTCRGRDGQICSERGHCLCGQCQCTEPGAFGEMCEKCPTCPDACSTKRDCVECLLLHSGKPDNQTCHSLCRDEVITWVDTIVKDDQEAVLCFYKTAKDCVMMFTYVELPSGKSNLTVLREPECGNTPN
T1 sequence (P06756 31-992 limits assumed, chain 1 of 2): as the sequence (chain, as listed by the source limits assumed, chain 1 of 2) above
T1 sequence (P26012 43-684 limits assumed, chain 2 of 2): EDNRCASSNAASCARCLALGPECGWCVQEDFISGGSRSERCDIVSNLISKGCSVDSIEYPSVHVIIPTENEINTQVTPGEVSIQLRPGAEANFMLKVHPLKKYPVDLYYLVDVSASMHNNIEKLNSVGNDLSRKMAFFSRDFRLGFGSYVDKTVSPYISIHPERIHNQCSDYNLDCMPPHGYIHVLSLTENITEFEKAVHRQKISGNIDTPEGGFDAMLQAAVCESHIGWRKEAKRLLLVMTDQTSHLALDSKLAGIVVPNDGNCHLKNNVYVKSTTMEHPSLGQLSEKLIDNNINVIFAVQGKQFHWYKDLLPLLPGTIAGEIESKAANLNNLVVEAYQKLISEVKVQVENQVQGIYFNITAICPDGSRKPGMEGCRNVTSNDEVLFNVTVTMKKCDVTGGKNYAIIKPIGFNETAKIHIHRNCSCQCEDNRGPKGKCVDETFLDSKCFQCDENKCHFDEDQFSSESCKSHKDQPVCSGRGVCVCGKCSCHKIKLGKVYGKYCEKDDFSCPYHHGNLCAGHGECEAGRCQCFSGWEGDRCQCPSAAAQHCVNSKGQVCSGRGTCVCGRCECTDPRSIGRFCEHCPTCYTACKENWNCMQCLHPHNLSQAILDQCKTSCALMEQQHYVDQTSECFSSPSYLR
recombinant αvβ8 ectodomain, sequence (P06756 31-992 limits assumed, chain 1 of 2): as the sequence (chain, as listed by the source limits assumed, chain 1 of 2) above
recombinant αvβ8 ectodomain, sequence (P26012 43-684 limits assumed, chain 2 of 2): as the sequence (P26012 43-684 limits assumed, chain 2 of 2) above

B1: C6D4-RGD3 (antibody, V domains shown)
VH: QIQLLQSGPELKKPGETVKISCKASGYTFTDYSMHWVKQAPGKGLKWVARINTETGEPTFADDFRGRFAVSLETSASTAYLQINNLKNEDTATYFCAIFYYGRDSWGQGTTLTVSS
VL: DIVMTQSPSSLAVSAGEKVTMSCKSSQSLLGRGDLGRLKKNALAWYQQKPGQSPRLLIYWASTRESGVPDRFTGSGSGTDFTLTISSVQAEDLAVYYCKQSYNLLSFGAGTKLELKR
notes: also called CD64-RGD3; C6 / RGD3
For B1, the “EC50 of inhibition of TGF-β activation (TMLC luciferase reporter) of GARP/LTGFB1 Cho cells on immobilized αvβ8; unit from the axis” value in test [1] was determined as 0.854 µg/mL. For the same molecule, the “EC50 of inhibition of TGF-β activation (TMLC luciferase reporter) of GARP/LTGFB1 Cho cells on immobilized αvβ6; unit from the axis” value in [2] worked out at 0.412 µg/mL. Further, the binding result in test [3], in test [4] and in test [5] was “no binding (tested: supernatant at 1/10 dilution)” each time. For the same molecule, the “Binding in Mg buffer relative to clone 68 (% compared with binding to anti-av clone 11D12V2)” value in test [6] was determined as 98%; in test [7], 120%. For the same molecule, in test [8], the “binding intensity score (0-4)” value amounted to 4 score 0-4. The EC50 was 1.19 µg/mL in [9] and 0.479 µg/mL in test [10]. Further, the LogEC50 in test [11] was 3.78 Log10 (ng/ml).

B2: C6D4-RGD3 as rabbit IgG (C6VH expressed with the RGD3 mutant Vk) (antibody, V domains shown)
VH: B1 VH
VL: B1 VL
notes: also called C6D4-RGD3 mutant
As for B2, the binding result in test [12], in [13] and in test [14] was “no binding” throughout.

B3: C6D4 as rabbit IgG (C6VH expressed with D4 Vk) (antibody, V domains shown)
VH: B1 VH
VL: DIVMTQSPSSLAVSAGEKVTMSCKSSQSLLNSRTRKNYLAWYQQKPGQSPRLLIYWASTRESGVPDRFTGSGSGTDFTLTISSVQAEDLAVYYCKQSYNLLSFGAGTKLELKR
notes: also called wildtype C6D4
Regarding B3, the binding result in test [15], in test [13] and in [14] was “no binding” in each case.

B4: C6 VH / RGD3-9 Vk murine IgG (antibody, V domains shown)
VH: B1 VH
VL: DIVMTQSPSSLAVSAGEKVTMSCKSSQSLLGRGDLGRLKKQKDHHWYQQKPGQSPRLLIYWASTRESGVPDRFTGSGSGTDFTLTISSVQAEDLAVYYCKQSYNLLSFGAGTKLELKR
notes: Murine IgG, supernatant of 293 cells; CDRL1 swap into the C6D4 murine IgG vector, VH not altered; also called C6RGD3-9
As for B4, the binding result in test [16], in test [3], in test [4] and in test [5] was “no binding (tested: supernatant at 1/10 dilution)” each time. For the same molecule, the “binding intensity score (0-4)” value in test [17] is 3 score 0-4.

B5: C6 VH / RGD2 Vk murine IgG (antibody, V domains shown)
VH: B1 VH
VL: DIVMTQSPSSLAVSAGEKVTMSCKSSQSLLNSGRGDLGNALAWYQQKPGQSPRLLIYWASTRESGVPDRFTGSGSGTDFTLTISSVQAEDLAVYYCKQSYNLLSFGAGTKLELKR
notes: Murine IgG, supernatant of 293 cells; CDRL1 of the C6D4 murine IgG vector replaced by the printed loop, VH not altered; also called C6D4-RGD2; C6RGD2
In the case of B5, the binding result in test [18], in test [3], in test [4] and in test [5] was “no binding (tested: supernatant at 1/10 dilution)” throughout. For the same molecule, in [8], the “binding intensity score (0-4)” value is 2 score 0-4.

B6: C6 VH / RGD1 Vk murine IgG (antibody, V domains shown)
VH: B1 VH
VL: B3 VL with N31G, S32R, R33G, T34D, R35L, K36G, Y38A
notes: Murine IgG, supernatant of 293 cells; CDRL1 swap into the C6D4 murine IgG vector, VH not altered; also called C6D4-RGD1; C6RGD1
As to B6, the binding result in test [18], in [3], in test [4] and in [5] was “no binding (tested: supernatant at 1/10 dilution)” in each case. Further, the “binding intensity score (0-4)” value in test [8] was 1 score 0-4.

B7: clone 29 (scFv, yeast display) (scFv, V domains shown)
VH: B1 VH with F99Y
VL: B3 VL with T5S, S102T, R113A
notes: scFv on yeast
B7: the binding result in test [19] is listed as “binds”.

B8: clone 44 (scFv, yeast display) (scFv, V domains shown)
VH: B1 VH with F99Y
VL: B3 VL with T5S, A86D, S102T, R113A
notes: scFv on yeast
Regarding B8, the binding result in [19] is given as “binds”.

B9: C6 VH / RGD3-12 Vk murine IgG (antibody, V domains shown)
VH: B1 VH
VL: DIVMTQSPSSLAVSAGEKVTMSCKSSQSLLGRGDLGRLKKQKWYQQKPGQSPRLLIYWASTRESGVPDRFTGSGSGTDFTLTISSVQAEDLAVYYCKQSYNLLSFGAGTKLELKR
notes: Murine IgG, supernatant of 293 cells; CDRL1 swap into the C6D4 murine IgG vector, VH not altered; also called C6RGD3-12
Regarding B9, the binding result in test [16], in [3] and in [5] was “no binding (tested: supernatant at 1/10 dilution)” each time. Further, the “binding intensity score (0-4)” value in [17] came to 2 score 0-4; in test [20] it was 1 score 0-4.

B10: Humanized C6D4-RGD3 (HuC6D4-RGD3) (antibody, V domains shown)
VH: QIQLVQSGAEVKKPGASVKISCKASGYTFTDYSMHWVRQAPGQGLEWVARINTETGEPTFADDFRGRFTVTLDTSTSTAYLEIRSLRSDDTAVYFCAIFYYGRDTWGQGTTLTVSS
VL: EIVMTQSPATLSVSPGERVTMSCKSSQSLLGRGDLGRLKKNALAWYQQKPGQAPRLLIYWASTRESGVPARFSGSGSGTEFTLTISSVQSEDFAVYYCKQSYNLLSFGQGTVLEIKR
notes: Frameworks and CH1 are human; hinge and CH2-3 are mouse; also called humanized RGD3
For B10, in [21], the binding result is listed as “binds”.

The term EC50 denotes the concentration giving half of the maximal effect.
